Results published in PMC6872632, “BIK1 and ERECTA Play Opposing Roles in Both Leaf and Inflorescence Development in Arabidopsis” (Frontiers in Plant Science, 2019).

T1: BOTRYTIS-INDUCED KINASE1 (BIK1), His-tagged recombinant protein (Arabidopsis thaliana, UniProt O48814 1-395)
T1 construct: BOTRYTIS-INDUCED KINASE1 (BIK1), Arabidopsis thaliana, full-length ORF cloned into pET-28; source: E. coli BL21, purified (Ni-Sepharose beads)
T1 sequence (looked up): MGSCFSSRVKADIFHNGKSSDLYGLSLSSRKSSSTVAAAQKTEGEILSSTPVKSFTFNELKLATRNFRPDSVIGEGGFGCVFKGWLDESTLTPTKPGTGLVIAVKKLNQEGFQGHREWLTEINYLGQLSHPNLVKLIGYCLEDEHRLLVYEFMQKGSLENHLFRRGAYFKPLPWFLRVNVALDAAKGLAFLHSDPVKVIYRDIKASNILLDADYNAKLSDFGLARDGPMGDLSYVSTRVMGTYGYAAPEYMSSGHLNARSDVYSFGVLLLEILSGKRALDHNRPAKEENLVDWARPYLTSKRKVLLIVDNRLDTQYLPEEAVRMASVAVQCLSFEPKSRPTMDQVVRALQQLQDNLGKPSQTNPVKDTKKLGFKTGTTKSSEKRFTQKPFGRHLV

B1: ERL2 cytoplasmic domain, GST-tagged recombinant protein (domain or fragment, Arabidopsis thaliana, UniProt Q6XAT2 607-967, looked up)
chain: YKSKQQKPVLKGSSKQPEGSTKLVILHMDMAIHTFDDIMRVTENLDEKYIIGYGASSTVYKCTSKTSRPIAIKRIYNQYPSNFREFETELETIGSIRHRNIVSLHGYALSPFGNLLFYDYMENGSLWDLLHGPGKKVKLDWETRLKIAVGAAQGLAYLHHDCTPRIIHRDIKSSNILLDGNFEARLSDFGIAKSIPATKTYASTYVLGTIGYIDPEYARTSRLNEKSDIYSFGIVLLELLTGKKAVDNEANLHQMILSKADDNTVMEAVDAEVSVTCMDSGHIKKTFQLALLCTKRNPLERPTMQEVSRVLLSLVPSPPPKKLPSPAKVQEGEERRESHSSDTTTPQWFVQFREDISKSSL
notes: ERL2 (ER-LIKE2), Arabidopsis thaliana, truncated to the cytoplasmic domain (CD), in pGEX-4T-1; also called GST-ERL2-CD; source: E. coli BL21, purified (Glutathione Sepharose beads)
B2: ERECTA (ER) cytoplasmic domain, GST-tagged recombinant protein (domain or fragment, Arabidopsis thaliana, UniProt Q42371 602-976, looked up)
chain: CRPHNPPPFLDGSLDKPVTYSTPKLVILHMNMALHVYEDIMRMTENLSEKYIIGHGASSTVYKCVLKNCKPVAIKRLYSHNPQSMKQFETELEMLSSIKHRNLVSLQAYSLSHLGSLLFYDYLENGSLWDLLHGPTKKKTLDWDTRLKIAYGAAQGLAYLHHDCSPRIIHRDVKSSNILLDKDLEARLTDFGIAKSLCVSKSHTSTYVMGTIGYIDPEYARTSRLTEKSDVYSYGIVLLELLTRRKAVDDESNLHHLIMSKTGNNEVMEMADPDITSTCKDLGVVKKVFQLALLCTKRQPNDRPTMHQVTRVLGSFMLSEQPPAATDTSATLAGSCYVDEYANLKTPHSVNCSSMSASDAQLFLRFGQVISQNSE
notes: ERECTA (ER), Arabidopsis thaliana, truncated to the cytoplasmic domain (CD), in pGEX-4T-1; also called GST-ER-CD; ER-CD; source: E. coli BL21, purified (Glutathione Sepharose beads)
B3: ER-LIKE1 (ERL1) cytoplasmic domain, GST-tagged recombinant protein (domain or fragment, Arabidopsis thaliana, UniProt C0LGW6 604-966, looked up)
chain: YKSMQQKKILQGSSKQAEGLTKLVILHMDMAIHTFDDIMRVTENLNEKFIIGYGASSTVYKCALKSSRPIAIKRLYNQYPHNLREFETELETIGSIRHRNIVSLHGYALSPTGNLLFYDYMENGSLWDLLHGSLKKVKLDWETRLKIAVGAAQGLAYLHHDCTPRIIHRDIKSSNILLDENFEAHLSDFGIAKSIPASKTHASTYVLGTIGYIDPEYARTSRINEKSDIYSFGIVLLELLTGKKAVDNEANLHQLILSKADDNTVMEAVDPEVTVTCMDLGHIRKTFQLALLCTKRNPLERPTMLEVSRVLLSLVPSLQVAKKLPSLDHSTKKLQQENEVRNPDAEASQWFVQFREVISKSSI
notes: ER-LIKE1 (ERL1), Arabidopsis thaliana, truncated to the cytoplasmic domain (CD), in pGEX-4T-1; also called GST-ERL1-CD; source: E. coli BL21, purified (Glutathione Sepharose beads)

The binders below were run against T1, BOTRYTIS-INDUCED KINASE1 (BIK1), … (assay: pull-down; 10 µg BIK1-His and 10 µg GST-ER/ERL1/ERL2-CD or GST with glutathione agarose beads, 25 mM Tris-HCl pH 7.5, 150 mM NaCl, 1 mM DTT, 3 h; eluted with 30 mM glutathione; BIK1-His detected with anti-His antibody). Details: both partners purified.

Row | binding result | Binder
1 | binds | B1
2 | binds | B2
3 | binds | B3
